In patent US20020123068A1, “Water-soluble, fluorescent, & electrophoretically mobile peptidic substrates for enzymatic reactions and methods for their use in high-throughput screening assays” (priority 2001, published 2002):
Blank lines part the entries; values can stand above or below the compound they belong to. Where a SMILES comes first, the peptide text is derived from it. Where no end group is shown, it is not given here. Side-chain parts run from the residue outwards. Texas Red = Texas Red: fluorescent dye

Columns and labels:
[1] = molecular target: T1, SRC Kinase (Homo sapiens, UniProt P12931); details: screen done by investigators at Selectide; cited from earlier work
[2] = test system: T2, C-[S-(TXR-Jeff)]EEEFIYGAFKKKK
T2 sequence: CEEEFIYGAFKKKK

[3] = test system: T3, conjugate comprising just the BODIPY630/650 and Kemptide
T3 sequence: LRRASLG

[4] = molecular target: T4, protein kinase A (PKA) (Bos taurus, UniProt P00517); assay: Protein kinase A phosphorylation assay (PepTag assay kit), agarose gel electrophoresis readout; assay type: biochemical
T4 construct: purchased Promega (Madison, WI)
Method: The fluorescent peptides were assayed with protein kinase A (PKA) using the PepTag assay kit from Promega (Madison, WI). The concentrations of the peptides in the assay were 60 μM, and the concentration of ATP was 1 mM. After completion of the assay the 25 μL reaction mixtures were spiked with 5 μL of 50% glycerol and submitted to gel electrophoresis in a 0.8% horizontal agarose slab in 50 mM TRIS HCl, pH 8.0. The gels were imaged with a fluorescence imager. The results appear in FIG. 1. The Lissamine Kemptide reaction mixtures (− & + kinase) are included as controls. It is clear that both isomers of N-(TXR)LRRASLG [SEQ. ID NO.

[5] = Solubility of peptides and fluorescent peptide conjugates in aqueous buffer; assay type: physicochemical
[6] = molecular target: T1, SRC Kinase; assay: SRC kinase assay of fluorescent peptidic substrates, agarose gel electrophoresis readout; assay type: biochemical; details: for substrate of SRC kinase (FIG. 4): peptide 20 μM, 10 units SRC kinase, 1 h at room temperature
Method: An assay of the fluorescent peptidic substrate was performed in the presence of SRC Kinase. The peptide concentration was 10 μM, and the ATP concentration was 100 μM. The reaction proceeded in a buffer comprising 25 mM sodium (N-[2-hydroxyethyl]piperazine-N′-[2-ethanesulfonate]), 20 mM magnesium chloride, pH 7.4 for 90 min at room temperature, and the reaction mixture was submitted to gel electrophoresis in a 0.8% agarose slab at pH 8.0. Nearly 75% conversion of the substrate to product took place, and the substrate and product migrated in opposite directions. The results appear in FIG. 3.
A kinase assay was performed with each of these peptides as substrates. The concentrations of the Ac-C-[S-(BTR-Jeff)]EEFIYGAFKKKK [SEQ. ID NO. 3] and Ac-C-[S-(BTR-Jeff)]EEFIYGAFRRRR [SEQ. ID NO. 4] were 20 μM, respectively. The ATP concentration in each reaction was 100 μM, and 10 units of SRC kinase were added per reaction. The reactions proceeded at room temperature for 1 h. The reaction mixtures were spiked with 50% glycerol to give a final concentration of 10%. The samples (25 μL) were submitted to gel electrophoresis on a 0.8% agarose slab in 50 mM TRIS HCl, pH 8.0.
The SRC substrate Ac-C-[S-(TXR-Jeff)]EEFIYGAFKKKK [SEQ. ID NO. 5] was prepared and assayed as described by the method in Example 5 with the exceptions that TXR-Jeffamine-BAA was used as the fluorophore and the assay was allowed to proceed overnight. The results of the assay appear in FIG. 5. The anode is to the left and the cathode to the right. N-(TXR)-LRRASLG [SEQ. ID NO. 11] (Texas Red labeled Kemptide) and its phosphorylated derivative were included as mobility standards.

Compound: FIYGAFK (Test Substrate Sequence)
active substrate of SRC Kinase in resin-bound peptide library screen [1]: active substrate

Compound: SRC kinase
Km (kinase assay) [2]: Km=8.5 µM | conversion of the substrate to product (kinase assay, agarose gel electrophoresis) [2]: Nearly 75% conversion of the substrate to product took place

Compound: protein kinase A (PKA)
phosphorylation [3]: its solubility was so low that Protein Kinase A could not phosphorylate it

Compound: N-(TXR)LRRASLG: Texas Red-X labeled Kemptide prepared for comparison (Example 1) ({Texas Red‑X}-LRRASLG)
substrate for PKA (FIG. 1) ([4]; peptide 60 μM, ATP 1 mM): substrates for PKA

Compound: Ac-C-[S-(BTR-Jeff)]EEFIYGAFKKKK: BODIPY TR-Jeffamine ED-900 conjugate of N-acetylated peptide Ac-CEEFIYGAFKKKK (Ac-C([Jeffamine ED‑900-BODIPY TR])EEFIYGAFKKKK)
substrate of SRC kinase (FIG. 4) ([6]; ATP 100 μM): is a substrate of SRC kinase

The next lines start with results.

phosphorylation by Protein Kinase A (Example 3, FIG. 2) [4]: could not phosphorylate
Compound: conjugate comprising just the BODIPY630/650 and Kemptide: BODIPY630/650 coupled to Kemptide LRRASLG without PEG spacer (also: BODIPY630/650 coupled without spacer, site not given here) [reference compound]
solubility [5]: so low

solubility [5]: Insolubility
Compound: CC[C@H](C)[C@H](NC(=O)[C@H](Cc1ccccc1)NC(=O)[C@H](C)NC(=O)[C@H](C)NC(=O)[C@@H](N)CS)C(=O)N[C@@H](Cc1ccc(O)cc1)C(=O)NCC(=O)N[C@@H](C)C(=O)N[C@@H](Cc1ccccc1)C(=O)N[C@@H](CCCCN)C(=O)O [CAAFIYGAFK] (H-CAAFIYGAFK-OH; N-terminus and C-terminus assumed)

phosphorylation by Protein Kinase A (Example 3, FIG. 2) [4]: successfully phosphorylated
Compound: (BODIPY-PEG)-labeled Kemptide: BODIPY630/650 coupled to Kemptide LRRASLG through a 3,400 molecular weight PEG spacer (not fully specified; also: BODIPY630/650 label, attachment site not given here)

quality/reactivity as substrate for SRC kinase (in words) [6]: good substrate
Compound: C-[S-(TXR-Jeff)]EEEFIYGAFKKKK: Texas Red linked through a Jeffamine ED-900 PEG spacer to the cysteine thiol of peptide CEEEFIYGAFKKKK; SRC kinase substrate (C([Jeffamine ED‑900-Texas Red])EEEFIYGAFKKKK)
Km ([6]; fluorescent peptide as substrate for SRC Kinase): 8.5 µM | conversion of the substrate to product ([6]; peptide 10 μM, ATP 100 μM, pH 7.4, 90 min at room temperature): ~75%

quality/reactivity as substrate for SRC kinase (in words) [6]: good reactivity
Compound: Ac-C-[S-(TXR-Jeff)]EEFIYGAFKKKK: Texas Red-Jeffamine ED-900 conjugate of N-acetylated peptide Ac-CEEFIYGAFKKKK (Example 6) (Ac-C([Jeffamine ED‑900-Texas Red])EEFIYGAFKKKK)

substrate of SRC kinase (FIG. 4) ([6]; ATP 100 μM): is not
Compound: Ac-C-[S-(BTR-Jeff)]EEFIYGAFRRRR: BODIPY TR-Jeffamine ED-900 conjugate of N-acetylated peptide Ac-CEEFIYGAFRRRR (Ac-C([Jeffamine ED‑900-BODIPY TR])EEFIYGAFRRRR)
quality/reactivity as substrate for SRC kinase (in words) [6]: did not result in a sufficiently reactive substrate | solubility [5]: much lower
